Where a chain is given by its changes, count along the chain named. Names may count otherwise.

First the molecules themselves.
B1: GLS3000 K50Q one-arm antibody (antibody, human IgG1, kappa, L234A L235A, N297A, name in Kabat numbering)
heavy: QVQLVESGGGVVQPGRSLRLSCAASGFTFSNAWMHWVRQAPGKGLEWVAQIKAKSNNYATYYAESVKGRFTISRDDSKNSLYLQMNSLKTEDTAVYYCRYVHYGAYYGVDAWGQGTTVTVSSASTKGPSVFPLAPSSKSTSGGTAALGCLVKDYFPEPVTVSWNSGALTSGVHTFPAVLQSSGLYSLSSVVTVPSSSLGTQTYICNVNHKPSNTKVDKKVEPKSCDKTHTCPPCPAPEAAGGPSVFLFPPKPKDTLMISRTPEVTCVVVDVSHEDPEVKFNWYVDGVEVHNAKTKPREEQYASTYRVVSVLTVLHQDWLNGKEYKCKVSNKALPAPIEKTISKAKGQPREPQVYTLPPSRCELTKNQVSLSCAVKGFYPSDIAVEWESNGQPENNYKTTPPVLDSDGSFFLVSKLTVDKSRWQQGNVFSCSVMHEALHNHYTQKSLSLSPDYKDDDDK
chain: EPKSSDKTHTCPPCPAPELLGGPSVFLFPPKPKDTLMISRTPEVTCVVVDVSHEDPEVKFNWYVDGVEVHNAKTKPREEQYNSTYRVVSVLTVLHQDWLNGKEYKCKVSNKALPAPIEKTISKAKGQPREPQVCTLPPSRDELTKNQVSLWCLVKGFYPSDIAVEWESNGQPENNYKTTPPVLDSDGSFFLYSKLTVDKSRWQQGNVFSCSVMHEALHNRYTQKSLSLSP
light: DIVMTQSPLSLPVTPGEPASISCRSSQSLVHSNRNTYLHWYQQKPGQAPRLLIYQVSNRFSGVPDRFSGSGSGTDFTLKISRVEAEDVGVYYCGQGTQVPYTFGQGTKLEIKRTVAAPSVFIFPPSDEQLKSGTASVVCLLNNFYPREAKVQWKVDNALQSGNSQESVTEQDSKDSTYSLSSTLTLSKADYEKHKVYACEVTHQGLSSPVTKSFNRGEC
B2: GLS3000 L33V one-arm antibody (antibody, human IgG1, kappa, L234A L235A, N297A, name in Kabat numbering)
heavy: B1 heavy
chain: B1 chain
light: B1 light with L38V, Q55K
B3: GLS3000 K107E one-arm antibody (antibody, human IgG1, kappa, L234A L235A, N297A, name in Kabat numbering)
heavy: B1 heavy
chain: B1 chain
light: B1 light with Q55K, K112E
B4: GLS3000 K50T one-arm antibody (antibody, human IgG1, kappa, L234A L235A, N297A, name in Kabat numbering)
heavy: B1 heavy
chain: B1 chain
light: B1 light with Q55T
B5: GLS3000 L27bW one-arm antibody (antibody, human IgG1, kappa, L234A L235A, N297A, name in Kabat numbering)
heavy: B1 heavy
chain: B1 chain
light: B1 light with L29W, Q55K
B6: GLS3000 L33E one-arm antibody (antibody, human IgG1, kappa, L234A L235A, N297A, name in Kabat numbering)
heavy: B1 heavy
chain: B1 chain
light: B1 light with L38E, Q55K
B7: GLS3000 L27bI one-arm antibody (antibody, human IgG1, kappa, L234A L235A, N297A, name in Kabat numbering)
heavy: B1 heavy
chain: B1 chain
light: B1 light with L29I, Q55K
B8: GLS3000 K74T one-arm antibody (antibody, human IgG1, kappa, L234A L235A, N297A, name in Kabat numbering)
heavy: B1 heavy
chain: B1 chain
light: B1 light with Q55K, K79T
B9: GLS3000 L27bF one-arm antibody (antibody, human IgG1, kappa, L234A L235A, N297A, name in Kabat numbering)
heavy: B1 heavy
chain: B1 chain
light: B1 light with L29F, Q55K
B10: GLS3000 L27bD one-arm antibody (antibody, human IgG1, kappa, L234A L235A, N297A, name in Kabat numbering)
heavy: B1 heavy
chain: B1 chain
light: B1 light with L29D, Q55K
B11: GLS3000 N28I one-arm antibody (antibody, human IgG1, kappa, L234A L235A, N297A, name in Kabat numbering)
heavy: B1 heavy
chain: B1 chain
light: B1 light with N33I, Q55K
B12: GLS3000 K50R one-arm antibody (antibody, human IgG1, kappa, L234A L235A, N297A, name in Kabat numbering)
heavy: B1 heavy
chain: B1 chain
light: B1 light with Q55R
B13: GLS3000 L27bM one-arm antibody (antibody, human IgG1, kappa, L234A L235A, N297A, name in Kabat numbering)
heavy: B1 heavy
chain: B1 chain
light: B1 light with L29M, Q55K
B14: GLS3000 L27bV one-arm antibody (antibody, human IgG1, kappa, L234A L235A, N297A, name in Kabat numbering)
heavy: B1 heavy
chain: B1 chain
light: B1 light with L29V, Q55K
B15: GLS3000 L33M one-arm antibody (antibody, human IgG1, kappa, L234A L235A, N297A, name in Kabat numbering)
heavy: B1 heavy
chain: B1 chain
light: B1 light with L38M, Q55K
B16: GLS3000 N28A one-arm antibody (antibody, human IgG1, kappa, L234A L235A, N297A, name in Kabat numbering)
heavy: B1 heavy
chain: B1 chain
light: B1 light with N33A, Q55K
B17: GLS3000 N28F one-arm antibody (antibody, human IgG1, kappa, L234A L235A, N297A, name in Kabat numbering)
heavy: B1 heavy
chain: B1 chain
light: B1 light with N33F, Q55K
B18: GLS3000 N28H one-arm antibody (antibody, human IgG1, kappa, L234A L235A, N297A, name in Kabat numbering)
heavy: B1 heavy
chain: B1 chain
light: B1 light with N33H, Q55K
B19: GLS3000 L33D one-arm antibody (antibody, human IgG1, kappa, L234A L235A, N297A, name in Kabat numbering)
heavy: B1 heavy
chain: B1 chain
light: B1 light with L38D, Q55K
B20: GLS3000 N28G one-arm antibody (antibody, human IgG1, kappa, L234A L235A, N297A, name in Kabat numbering)
heavy: B1 heavy
chain: B1 chain
light: B1 light with N33G, Q55K
B21: GLS3000 L27bY one-arm antibody (antibody, human IgG1, kappa, L234A L235A, N297A, name in Kabat numbering)
heavy: B1 heavy
chain: B1 chain
light: B1 light with L29Y, Q55K
B22: GLS3000 L33F one-arm antibody (antibody, human IgG1, kappa, L234A L235A, N297A, name in Kabat numbering)
heavy: B1 heavy
chain: B1 chain
light: B1 light with L38F, Q55K
B23: GLS3000 L27bP one-arm antibody (antibody, human IgG1, kappa, L234A L235A, N297A, name in Kabat numbering)
heavy: B1 heavy
chain: B1 chain
light: B1 light with L29P, Q55K
B24: GLS3000 L27bE one-arm antibody (antibody, human IgG1, kappa, L234A L235A, N297A, name in Kabat numbering)
heavy: B1 heavy
chain: B1 chain
light: B1 light with L29E, Q55K
B25: GLS3000 K50Y one-arm antibody (antibody, human IgG1, kappa, L234A L235A, N297A, name in Kabat numbering)
heavy: B1 heavy
chain: B1 chain
light: B1 light with Q55Y
B26: GLS3000 K50S one-arm antibody (antibody, human IgG1, kappa, L234A L235A, N297A, name in Kabat numbering)
heavy: B1 heavy
chain: B1 chain
light: B1 light with Q55S
B27: GLS3000 L33A one-arm antibody (antibody, human IgG1, kappa, L234A L235A, N297A, name in Kabat numbering)
heavy: B1 heavy
chain: B1 chain
light: B1 light with L38A, Q55K
B28: GLS3000 L33P one-arm antibody (antibody, human IgG1, kappa, L234A L235A, N297A, name in Kabat numbering)
heavy: B1 heavy
chain: B1 chain
light: B1 light with L38P, Q55K
B29: GLS3000 N28D one-arm antibody (antibody, human IgG1, kappa, L234A L235A, N297A, name in Kabat numbering)
heavy: B1 heavy
chain: B1 chain
light: B1 light with N33D, Q55K
B30: GLS3000 L27bS one-arm antibody (antibody, human IgG1, kappa, L234A L235A, N297A, name in Kabat numbering)
heavy: B1 heavy
chain: B1 chain
light: B1 light with L29S, Q55K
B31: GLS3000 L33I one-arm antibody (antibody, human IgG1, kappa, L234A L235A, N297A, name in Kabat numbering)
heavy: B1 heavy
chain: B1 chain
light: B1 light with L38I, Q55K
B32: GLS3000 N28E one-arm antibody (antibody, human IgG1, kappa, L234A L235A, N297A, name in Kabat numbering)
heavy: B1 heavy
chain: B1 chain
light: B1 light with N33E, Q55K

In this assay the target is T1, CD3ε homodimer protein (human, UniProt P07766 23-126, limits assumed).
T1 construct: also called CD3 (CD3ε)
T1 sequence (P07766 23-126 limits assumed): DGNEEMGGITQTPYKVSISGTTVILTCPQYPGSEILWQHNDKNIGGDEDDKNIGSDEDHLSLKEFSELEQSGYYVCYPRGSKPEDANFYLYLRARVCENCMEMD
As to the kind of experiment: SPR Biacore T200, CD3ε homodimer on chip.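 Also: Light-chain single-residue variant antibodies injected over amine-coupled CD3ε homodimer on a CM4 chip at 25 °C, bound amount divided by that of the GLS3000-containing antibody.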 A general note: Surface plasmon resonance follows binding to a sensor surface in real time, without labels.
Take B1: the “ratio of amount bound vs unaltered GLS3000” value (“ratio of amount bound” below) was determined as 0.18.

B2: the “ratio of amount bound” value was 1.05.

For the molecule B3, the “ratio of amount bound” value was determined as 0.94.

As to B4, the “ratio of amount bound” value amounted to 0.19.

On to B5, for which the “ratio of amount bound” value amounted to 0.26.

In the case of B6, the “ratio of amount bound” value is 0.72.

As for B7, the “ratio of amount bound” value amounted to 1.19.

With B8, the “ratio of amount bound” value stood at 0.84.

As for B9, the “ratio of amount bound” value was 0.42.

Consider B10, for which the “ratio of amount bound” value worked out at 0.17.

As for B11, the “ratio of amount bound” value was 0.44.

Regarding B12, the “ratio of amount bound” value was 0.5.

Consider B13, for which the “ratio of amount bound” value came out at 0.71.

Turning to B14, the “ratio of amount bound” value was 1.12.

Turning to B15, the “ratio of amount bound” value was 0.93.

In the case of B16, the “ratio of amount bound” value was determined as 0.25.

For B17, the “ratio of amount bound” value worked out at 0.46.

Take B18: the “ratio of amount bound” value turned out to be 0.42.

For the molecule B19, the “ratio of amount bound” value was 0.17.

Turning to B20, the “ratio of amount bound” value turned out to be 0.46.

Consider B21, for which the “ratio of amount bound” value amounted to 0.25.

On to B22, for which the “ratio of amount bound” value came to 0.78.

As to B23, the “ratio of amount bound” value came out at 0.91.

B24: the “ratio of amount bound” value was found to be 0.17.

For the molecule B25, the “ratio of amount bound” value worked out at 0.24.

As to B26, the “ratio of amount bound” value was 0.23.

For the molecule B27, the “ratio of amount bound” value is 0.85.

B28: the “ratio of amount bound” value came to 0.3.

For B29, the “ratio of amount bound” value worked out at 0.19.

Regarding B30, the “ratio of amount bound” value was 0.71.

For the molecule B31, the “ratio of amount bound” value was 0.83.

Take B32: the “ratio of amount bound” value is 0.4.

Source of the values: patent US20260049138A1 (Chugai, published 2026).
